The values below are quoted from earlier work in PMC11036797.

For orientation: Kd means a measure of binding affinity in units of concentration.

Targets include FZD1 (Homo sapiens) (UniProt Q9UP38); FZD7 (Homo sapiens) (UniProt O75084); nectin-3 (Homo sapiens) (UniProt Q9NQS3); CSPG4 (Homo sapiens) (UniProt Q6UVK1); FZD2 (Homo sapiens) (UniProt Q14332).

CSPG4 (Homo sapiens), sequence (Q6UVK1 30-2322): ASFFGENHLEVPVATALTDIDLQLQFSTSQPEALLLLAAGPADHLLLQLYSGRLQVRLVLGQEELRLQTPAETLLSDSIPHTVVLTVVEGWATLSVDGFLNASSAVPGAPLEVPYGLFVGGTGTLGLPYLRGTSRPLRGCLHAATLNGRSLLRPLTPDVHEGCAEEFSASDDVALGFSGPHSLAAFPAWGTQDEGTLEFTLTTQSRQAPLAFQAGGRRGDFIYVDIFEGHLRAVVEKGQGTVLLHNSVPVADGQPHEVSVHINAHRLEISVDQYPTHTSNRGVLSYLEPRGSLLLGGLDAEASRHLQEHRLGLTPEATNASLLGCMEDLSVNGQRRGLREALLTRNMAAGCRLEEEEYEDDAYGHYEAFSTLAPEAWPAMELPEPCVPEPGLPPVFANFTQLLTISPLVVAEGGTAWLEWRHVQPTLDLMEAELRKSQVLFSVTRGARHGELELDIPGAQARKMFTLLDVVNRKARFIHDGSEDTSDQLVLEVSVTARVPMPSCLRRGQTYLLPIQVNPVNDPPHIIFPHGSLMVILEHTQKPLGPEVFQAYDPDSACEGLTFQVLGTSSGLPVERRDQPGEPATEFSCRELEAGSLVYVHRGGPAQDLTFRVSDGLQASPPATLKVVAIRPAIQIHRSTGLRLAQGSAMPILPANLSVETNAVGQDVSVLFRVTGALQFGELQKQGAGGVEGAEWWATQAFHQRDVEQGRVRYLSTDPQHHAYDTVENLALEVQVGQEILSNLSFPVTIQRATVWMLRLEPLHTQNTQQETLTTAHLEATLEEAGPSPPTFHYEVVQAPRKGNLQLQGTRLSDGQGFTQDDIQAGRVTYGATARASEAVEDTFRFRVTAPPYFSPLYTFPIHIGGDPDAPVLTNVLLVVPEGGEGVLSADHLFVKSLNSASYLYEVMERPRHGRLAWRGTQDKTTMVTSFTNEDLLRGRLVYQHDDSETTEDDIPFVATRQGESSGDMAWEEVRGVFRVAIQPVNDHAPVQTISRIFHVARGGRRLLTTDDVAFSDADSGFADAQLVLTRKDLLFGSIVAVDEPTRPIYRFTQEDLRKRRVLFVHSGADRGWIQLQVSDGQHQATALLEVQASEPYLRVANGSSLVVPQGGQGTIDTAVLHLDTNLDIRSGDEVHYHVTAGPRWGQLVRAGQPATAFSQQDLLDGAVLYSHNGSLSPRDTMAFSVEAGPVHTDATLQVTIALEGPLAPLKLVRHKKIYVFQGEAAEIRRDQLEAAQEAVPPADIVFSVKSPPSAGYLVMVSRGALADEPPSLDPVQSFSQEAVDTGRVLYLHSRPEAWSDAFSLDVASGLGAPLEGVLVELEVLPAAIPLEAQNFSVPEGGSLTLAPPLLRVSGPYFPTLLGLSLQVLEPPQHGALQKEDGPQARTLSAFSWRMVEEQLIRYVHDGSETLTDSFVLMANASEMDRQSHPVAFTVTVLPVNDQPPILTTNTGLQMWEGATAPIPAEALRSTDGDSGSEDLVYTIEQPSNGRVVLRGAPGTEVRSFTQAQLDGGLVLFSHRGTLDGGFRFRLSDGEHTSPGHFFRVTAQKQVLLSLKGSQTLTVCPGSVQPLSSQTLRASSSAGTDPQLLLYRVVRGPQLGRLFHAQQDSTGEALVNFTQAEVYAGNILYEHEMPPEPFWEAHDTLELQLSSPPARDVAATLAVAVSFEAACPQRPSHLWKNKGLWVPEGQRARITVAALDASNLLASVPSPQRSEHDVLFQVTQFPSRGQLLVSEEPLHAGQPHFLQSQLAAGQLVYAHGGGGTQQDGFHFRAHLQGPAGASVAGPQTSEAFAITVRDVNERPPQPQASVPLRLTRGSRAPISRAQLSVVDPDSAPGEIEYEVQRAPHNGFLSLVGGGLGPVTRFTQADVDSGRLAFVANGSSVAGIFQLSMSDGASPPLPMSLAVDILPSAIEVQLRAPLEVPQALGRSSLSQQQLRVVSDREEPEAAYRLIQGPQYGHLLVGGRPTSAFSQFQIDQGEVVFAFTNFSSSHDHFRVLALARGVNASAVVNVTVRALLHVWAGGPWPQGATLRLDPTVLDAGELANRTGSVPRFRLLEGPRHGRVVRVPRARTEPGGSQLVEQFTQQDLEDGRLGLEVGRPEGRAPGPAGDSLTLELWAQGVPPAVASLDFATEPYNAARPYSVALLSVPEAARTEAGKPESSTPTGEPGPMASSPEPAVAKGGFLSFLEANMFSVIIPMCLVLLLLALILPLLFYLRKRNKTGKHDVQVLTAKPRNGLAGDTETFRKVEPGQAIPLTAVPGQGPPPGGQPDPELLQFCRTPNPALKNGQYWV
FZD2 (Homo sapiens), sequence (Q14332 24-565): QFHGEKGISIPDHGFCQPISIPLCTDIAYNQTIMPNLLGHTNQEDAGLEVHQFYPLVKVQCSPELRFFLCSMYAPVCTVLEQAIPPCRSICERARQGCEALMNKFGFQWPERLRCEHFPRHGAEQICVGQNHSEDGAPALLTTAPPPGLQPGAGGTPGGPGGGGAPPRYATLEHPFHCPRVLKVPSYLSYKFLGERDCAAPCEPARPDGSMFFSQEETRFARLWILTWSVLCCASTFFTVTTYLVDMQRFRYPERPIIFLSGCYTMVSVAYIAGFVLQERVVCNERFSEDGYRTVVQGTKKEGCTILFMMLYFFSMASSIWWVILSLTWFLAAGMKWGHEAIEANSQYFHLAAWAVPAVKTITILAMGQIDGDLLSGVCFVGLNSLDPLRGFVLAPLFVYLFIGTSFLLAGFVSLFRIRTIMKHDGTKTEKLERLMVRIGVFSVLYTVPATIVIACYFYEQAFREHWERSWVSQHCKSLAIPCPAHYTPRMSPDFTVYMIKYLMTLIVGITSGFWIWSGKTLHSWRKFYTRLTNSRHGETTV
FZD1 (Homo sapiens), sequence (Q9UP38 70-647): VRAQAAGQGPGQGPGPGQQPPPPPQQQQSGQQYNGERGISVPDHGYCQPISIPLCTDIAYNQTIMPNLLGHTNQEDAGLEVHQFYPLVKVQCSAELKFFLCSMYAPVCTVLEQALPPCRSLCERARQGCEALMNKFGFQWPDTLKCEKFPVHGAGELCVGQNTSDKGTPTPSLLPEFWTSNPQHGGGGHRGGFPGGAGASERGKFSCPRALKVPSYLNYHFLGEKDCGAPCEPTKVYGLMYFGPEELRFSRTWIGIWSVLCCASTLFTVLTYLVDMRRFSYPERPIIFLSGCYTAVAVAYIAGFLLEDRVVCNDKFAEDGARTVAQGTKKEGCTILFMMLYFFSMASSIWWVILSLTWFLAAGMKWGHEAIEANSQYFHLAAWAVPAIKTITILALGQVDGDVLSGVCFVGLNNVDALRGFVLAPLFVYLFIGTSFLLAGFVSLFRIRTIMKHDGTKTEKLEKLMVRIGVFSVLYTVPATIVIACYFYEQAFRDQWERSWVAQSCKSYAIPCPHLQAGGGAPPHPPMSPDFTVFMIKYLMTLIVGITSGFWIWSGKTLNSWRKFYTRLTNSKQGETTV
nectin-3 (Homo sapiens), sequence (Q9NQS3 58-549): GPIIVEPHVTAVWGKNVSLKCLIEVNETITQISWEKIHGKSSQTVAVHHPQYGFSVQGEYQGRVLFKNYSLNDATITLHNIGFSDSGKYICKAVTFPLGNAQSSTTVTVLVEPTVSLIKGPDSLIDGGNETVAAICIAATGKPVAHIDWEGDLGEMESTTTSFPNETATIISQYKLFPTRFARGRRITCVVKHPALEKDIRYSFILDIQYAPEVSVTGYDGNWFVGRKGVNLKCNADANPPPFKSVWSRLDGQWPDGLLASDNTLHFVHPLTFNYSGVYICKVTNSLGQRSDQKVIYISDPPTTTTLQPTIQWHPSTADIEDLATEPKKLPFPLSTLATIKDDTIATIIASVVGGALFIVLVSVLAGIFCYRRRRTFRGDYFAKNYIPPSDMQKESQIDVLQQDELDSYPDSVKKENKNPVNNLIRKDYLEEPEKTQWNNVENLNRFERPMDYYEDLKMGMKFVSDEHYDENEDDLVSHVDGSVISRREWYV

Turning to TcdB1 (from UniProt P18177), the Kd is 32 nM in the data set with FZD1 (Homo sapiens); 27 nM with FZD7 (Homo sapiens); 53 nM in the data set with nectin-3 (Homo sapiens); 15.2 nM with CSPG4 (Homo sapiens); 19 nM with FZD2 (Homo sapiens).
